Measured values published in patent publication US20260137822A1 (ABDERA THERAPEUTICS, published 2026).

T1: human DLL3 on cells (HEK293T cells expressing human DLL3; SHP-77 cells) (human, UniProt Q9NYJ7 27-618)
T1 sequence (looked up): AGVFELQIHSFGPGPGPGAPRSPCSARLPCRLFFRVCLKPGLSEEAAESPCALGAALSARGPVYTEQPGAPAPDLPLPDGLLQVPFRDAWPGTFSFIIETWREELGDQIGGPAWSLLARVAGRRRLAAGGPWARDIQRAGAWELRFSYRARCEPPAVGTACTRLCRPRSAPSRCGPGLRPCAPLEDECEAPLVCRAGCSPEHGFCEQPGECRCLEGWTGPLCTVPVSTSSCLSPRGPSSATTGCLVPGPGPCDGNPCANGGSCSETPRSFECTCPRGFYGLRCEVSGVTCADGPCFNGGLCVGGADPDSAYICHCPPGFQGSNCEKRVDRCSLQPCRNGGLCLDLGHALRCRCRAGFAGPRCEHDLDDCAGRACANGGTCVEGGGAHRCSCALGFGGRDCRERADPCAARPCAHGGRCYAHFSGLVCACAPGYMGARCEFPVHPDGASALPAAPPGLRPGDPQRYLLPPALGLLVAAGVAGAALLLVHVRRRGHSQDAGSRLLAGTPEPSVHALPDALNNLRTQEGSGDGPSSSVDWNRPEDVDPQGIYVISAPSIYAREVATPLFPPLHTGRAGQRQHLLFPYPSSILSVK

T2: human DLL3 (recombinant antigen) (human, UniProt Q9NYJ7 27-492, limits assumed)
T2 construct: also called hDLL3
T2 sequence (looked up): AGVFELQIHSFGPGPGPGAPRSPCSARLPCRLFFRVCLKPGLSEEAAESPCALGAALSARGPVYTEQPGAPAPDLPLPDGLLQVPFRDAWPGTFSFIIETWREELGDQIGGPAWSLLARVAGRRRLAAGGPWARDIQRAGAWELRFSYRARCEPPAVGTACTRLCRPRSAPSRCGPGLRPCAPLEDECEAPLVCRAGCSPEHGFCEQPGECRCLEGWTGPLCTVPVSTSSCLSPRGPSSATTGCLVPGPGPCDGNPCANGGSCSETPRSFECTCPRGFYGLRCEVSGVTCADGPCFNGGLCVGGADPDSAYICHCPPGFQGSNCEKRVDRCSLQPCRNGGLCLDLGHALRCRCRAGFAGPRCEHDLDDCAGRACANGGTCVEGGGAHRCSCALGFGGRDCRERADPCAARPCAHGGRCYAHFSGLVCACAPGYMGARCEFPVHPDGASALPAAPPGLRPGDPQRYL

T3: mouse DLL3 (recombinant antigen) (mouse, UniProt O88516 25-477, limits assumed)
T3 construct: also called mDLL3
T3 sequence (looked up): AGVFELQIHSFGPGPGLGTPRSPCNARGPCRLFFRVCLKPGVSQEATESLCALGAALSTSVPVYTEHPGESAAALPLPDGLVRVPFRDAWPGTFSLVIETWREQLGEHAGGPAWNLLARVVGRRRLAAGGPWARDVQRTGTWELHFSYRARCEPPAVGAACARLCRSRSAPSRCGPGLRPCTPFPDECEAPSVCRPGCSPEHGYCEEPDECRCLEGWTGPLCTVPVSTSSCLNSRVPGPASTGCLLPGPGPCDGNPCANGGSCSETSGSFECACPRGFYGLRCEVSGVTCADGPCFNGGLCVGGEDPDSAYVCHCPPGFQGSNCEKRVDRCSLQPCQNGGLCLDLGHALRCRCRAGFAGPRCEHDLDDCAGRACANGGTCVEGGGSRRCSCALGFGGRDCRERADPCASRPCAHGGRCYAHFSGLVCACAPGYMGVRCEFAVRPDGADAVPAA


How the values were obtained:
[1] = biological target: T1, human DLL3 on cells (HEK293T cells …); experiment: cell-based or functional assay
[2] = biological target: T2, human DLL3 (recombinant antigen); experiment: affinity to hDLL3, H435Q-Fc format; method not given
[3] = biological target: T1, human DLL3 on cells (HEK293T cells …); experiment: flow cytometry on SHP-77 cells (endogenous DLL3), H435Q-Fc format
[4] = biological target: T4, mouse FOLR1 (recombinant antigen) (mouse, UniProt P35846 25-232, limits assumed); experiment: ELISA on mFOLR1
T4 construct: also called mFOLR1

[5] = biological target: T4, mouse FOLR1 (recombinant antigen); experiment: BLI (Octet), construct captured on AHC biosensor, mFOLR1 as analyte
Protocol: (§1) Antibody affinity was assessed using Octet Red96e (ForteBio). […] Each cycle was performed with orbital shake speed of 1,000 rpm. […] A set of AHC biosensors was dipped in kinetics buffer for baseline step of 60s. Anti-Target VHH-Fc (5 μg/mL, in kinetics buffer) was loaded onto the biosensors for 240 s followed by a second baseline step of 30 s. The IgG captured sensors were dipped into buffer for single reference subtraction to compensate natural dissociation of capture IgG. Each biosensor was then dipped into corresponding concentration of target protein (human, murine or cynomolgus monomeric protein) for 600 s, followed by 1800 s of dissociation time in kinetics buffer, or conditions as optimized. A new set of AHC biosensors was used for every VHH-Fc. The data was analysed by global fit 1:1 model for the association and dissociation step, (Octet software version v11.0).
(§2) Tetramers and VHH-Fcs were assessed for affinity to target antigens. AHC Octet biosensors were used to capture tetramer/VHH-Fc and then dipped into antigen.

[6] = biological target: T5, human FOLR1 (recombinant antigen) (human, UniProt P15328 25-234, limits assumed); experiment: ELISA on hFOLR1
T5 construct: also called hFOLR1

[7] = biological target: T2, human DLL3 (recombinant antigen); experiment: BLI (Octet), construct captured on AHC biosensor, hDLL3 as analyte
Protocol: as §1, §2

FOLR1 on OVCAR3 cells = biological target: T6, FOLR1 on OVCAR3 cells (UniProt P15328 25-234); experiment: cell binding to FOLR1-positive OVCAR3 cells
T6 construct: whole, on cells; OVCAR3 is a human ovarian cancer line; also called FOLR1-positive OVCAR3 cells

[8] = biological target: T3, mouse DLL3 (recombinant antigen); experiment: BLI (Octet), construct captured on AHC biosensor, mDLL3 as analyte; row label taken as a misprint for the bispecific
Protocol: as §1, §2

[9] = biological target: T5, human FOLR1 (recombinant antigen); experiment: BLI (Octet), construct captured on AHC biosensor, hFOLR1 as analyte
Protocol: as §1, §2

[10] = biological target: T3, mouse DLL3 (recombinant antigen); experiment: BLI (Octet), VHH-Fc captured on AHC biosensor, mDLL3 as analyte
Protocol: as §1
(§3) AHC Octet biosensors were used to capture tetramer/VHH-Fc and then dipped into antigen.

[11] = biological target: T2, human DLL3 (recombinant antigen); experiment: BLI (Octet), VHH-Fc captured on AHC biosensor, hDLL3 as analyte
Protocol: as §1, §3

[12] = biological target: T4, mouse FOLR1 (recombinant antigen); experiment: BLI (Octet), VHH-Fc captured on AHC biosensor, mFOLR1 as analyte
Protocol: as §1, §3

[13] = biological target: T5, human FOLR1 (recombinant antigen); experiment: BLI (Octet), VHH-Fc captured on AHC biosensor, hFOLR1 as analyte
Protocol: as §1, §3

T4 sequence (P35846 25-232 limits assumed): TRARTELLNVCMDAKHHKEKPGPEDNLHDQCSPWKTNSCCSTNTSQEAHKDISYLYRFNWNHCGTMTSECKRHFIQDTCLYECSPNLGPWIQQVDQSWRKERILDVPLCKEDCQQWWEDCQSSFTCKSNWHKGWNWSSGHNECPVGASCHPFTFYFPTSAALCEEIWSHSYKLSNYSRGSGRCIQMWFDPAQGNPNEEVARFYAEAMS
T5 sequence (P15328 25-234 limits assumed): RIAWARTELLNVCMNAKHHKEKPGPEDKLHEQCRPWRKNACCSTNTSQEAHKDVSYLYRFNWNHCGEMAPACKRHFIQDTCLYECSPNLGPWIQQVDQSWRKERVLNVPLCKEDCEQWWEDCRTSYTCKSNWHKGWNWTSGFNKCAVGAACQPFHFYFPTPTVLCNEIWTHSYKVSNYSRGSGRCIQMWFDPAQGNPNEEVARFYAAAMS
T6 sequence (P15328 25-234): as the sequence (P15328 25-234 limits assumed) above

| Binder | H435Q-Fc SHP-77 Internalization FOI [1] [fold over isotype] | Kd [2] [nM] | EC50 [3] [nM] | EC50 [4] [nM] | Kd [5] [nM] | koff [5] [s⁻¹] | kon [5] [M⁻¹ s⁻¹] | EC50 [6] [nM] | Kd [7] [nM] | koff [7] [s⁻¹] | kon [7] [M⁻¹ s⁻¹] | EC50 (FOLR1 on OVCAR3 cells) [nM] | Kd [8] [nM] | koff [8] [s⁻¹] | kon [8] [M⁻¹ s⁻¹] | Kd [9] [nM] | koff [9] [s⁻¹] | kon [9] [M⁻¹ s⁻¹] | further results |
| --- | --- | --- | --- | --- | --- | --- | --- | --- | --- | --- | --- | --- | --- | --- | --- | --- | --- | --- | --- |
| Clone 107 VHH-Fc, H435Q-Fc format (Fc fusion, not shown: hinge and human IgG1 Fc with H435Q (EU)) QVQLVESGGGLVQAGDSLRLSCVASDRTFSSYAVGWFRQAPGKEREFVAAISWNGGRTLYTDSVTGRFTISRDNAKSTVYLQMNGLKPEDTAVYYCAARPAAPTRRLEYDYWGQGTQVTVSS | 1.27 | 0.72 | 0.74 |  |  |  |  |  |  |  |  |  |  |  |  |  |  |  |  |
| Anti-FOLR1x2; Anti-DLL3x2; GGSx4 (bispecific tetravalent VHH-VHH-Fc) (bispecific antibody, not shown: a dimerising Fc or GST, homodimer; 104,665 Da; also called (GGS)4) QVQLVESGGGLVQPGGSLRLSCAASGFTVSNSVMAWYRQTPGNEREFVAIINSIGITNYADSVKGRFTISRDNSKNTLYLQMNSLRAEDTAVYVCNRNFDRIYWGQGTLVTVSSGGSGGSGGSGGSEVQLVESGGGEVQPGGSLRLSCAASGSIFSINAMGWYRQAPGKQRELVAGFTGDTNTIYAESVKGRFTISRDNAKNTVYLQMSSLRAEDTAVYYCAADVQLFSRDYEFYWGQGTLVTVKP |  |  |  | 0.07 | 7.99 | 0.00386 | 483000 | 0.11 | 1.24 | 0.000267 | 215000 | 0.59 | 2.88 | 0.000642 | 223000 | 2.32 | 0.000932 | 401000 |  |
| Clone 186 VHH-Fc, H435Q-Fc format (Fc fusion, also called 186 (H435Q-Fc); not shown: hinge and human IgG1 Fc with H435Q (EU)) QVQVVESGGGLVQPGGSLTLSCAASGFDFSTYTVNWYRQAPGKEREKVARISSTGTTTNYANSAKGRFTLSRDNAKNRVYLQMNNLKPEDTAVYFCNFERFDSNYWGQGTQVTVSS | 1.18 | 0.55 | 0.47 |  |  |  |  |  |  |  |  |  |  |  |  |  |  |  |  |
| Anti-FOLR1x2; Anti-DLL3x2; GGGGSx3 (bispecific tetravalent VHH-VHH-Fc) (bispecific antibody, not shown: a dimerising Fc or GST, homodimer; 104,948 Da; also called (GGGGS)3) QVQLVESGGGLVQPGGSLRLSCAASGFTVSNSVMAWYRQTPGNEREFVAIINSIGITNYADSVKGRFTISRDNSKNTLYLQMNSLRAEDTAVYVCNRNFDRIYWGQGTLVTVSSGGGGSGGGGSGGGGSEVQLVESGGGEVQPGGSLRLSCAASGSIFSINAMGWYRQAPGKQRELVAGFTGDTNTIYAESVKGRFTISRDNAKNTVYLQMSSLRAEDTAVYYCAADVQLFSRDYEFYWGQGTLVTVKP |  |  |  | 0.08 | 8.32 | 0.00407 | 490000 | 0.13 | 1.53 | 0.000306 | 200000 | 0.7 | 3.09 | 0.000684 | 222000 | 2.75 | 0.00111 | 405000 |  |
| Clone 24 VHH-Fc, H435Q-Fc format (Fc fusion, also called 24 (H435Q-Fc); not shown: hinge and human IgG1 Fc with H435Q (EU)) QVQYVESGGGLVQPGGSLRLSCAASGFTFSSYRINWYRQPPGKGRELVGSITDTGSTNYADSVKGRFTISRDNAKNTVYLQMSSLKPEDTAVYYCRAPTIAAYWGQGTQVTVSS | 1.19 | 1.08 | 1.2 |  |  |  |  |  |  |  |  |  |  |  |  |  |  |  |  |

Now from value to binder, other results behind:

| H435Q-Fc SHP-77 Internalization FOI [1] [fold over isotype] | Kd [2] [nM] | EC50 [3] [nM] | EC50 [4] [nM] | Kd [5] [nM] | koff [5] [s⁻¹] | kon [5] [M⁻¹ s⁻¹] | EC50 [6] [nM] | Kd [7] [nM] | koff [7] [s⁻¹] | kon [7] [M⁻¹ s⁻¹] | EC50 (FOLR1 on OVCAR3 cells) [nM] | Kd [8] [nM] | koff [8] [s⁻¹] | kon [8] [M⁻¹ s⁻¹] | Kd [9] [nM] | koff [9] [s⁻¹] | kon [9] [M⁻¹ s⁻¹] | Binder | further results |
| --- | --- | --- | --- | --- | --- | --- | --- | --- | --- | --- | --- | --- | --- | --- | --- | --- | --- | --- | --- |
| 1.19 | 0.2 | 1.16 |  |  |  |  |  |  |  |  |  |  |  |  |  |  |  | Clone 100 VHH-Fc, H435Q-Fc format (Fc fusion, also called 100 (H435Q-Fc); not shown: hinge and human IgG1 Fc with H435Q (EU)) QVQLVESGGGSVQPGGSLRLSCAASGIVFNSDVMGWYRQVPGKPRELVATITGGGSTNYATSVKGRFTISRDNAKNTVYLQMNSLRPEDTAVYYCNGRRGDSMLAFWAQGTQVTVSS |  |
|  |  |  | 0.09 | 7 | 0.00399 | 553000 | 0.14 | 1.43 | 0.000312 | 219000 | 0.58 | 2.92 | 0.000659 | 226000 | 2.68 | 0.00102 | 381000 | Anti-FOLR1x2; Anti-DLL3x2; GGSx3 (bispecific tetravalent VHH-VHH-Fc) (bispecific antibody, not shown: a dimerising Fc or GST, homodimer; 104,263 Da; also called (GGS)3) QVQLVESGGGLVQPGGSLRLSCAASGFTVSNSVMAWYRQTPGNEREFVAIINSIGITNYADSVKGRFTISRDNSKNTLYLQMNSLRAEDTAVYVCNRNFDRIYWGQGTLVTVSSGGSGGSGGSEVQLVESGGGEVQPGGSLRLSCAASGSIFSINAMGWYRQAPGKQRELVAGFTGDTNTIYAESVKGRFTISRDNAKNTVYLQMSSLRAEDTAVYYCAADVQLFSRDYEFYWGQGTLVTVKP |  |
| 1.19 | < 1 | 0.44 |  |  |  |  |  |  |  |  |  |  |  |  |  |  |  | Clone 126 VHH-Fc, H435Q-Fc format (Fc fusion, not shown: hinge and human IgG1 Fc with H435Q (EU)) QVQLVESGGGMVQPGGSLRLSCAASGITFSMYSMSWYRQPPGKQRELVAATTTFGSTNYADSVKGRFTISRDNAKNTVYLQMNSLKPEDTAVYLCNARFTSEEYWGQGTQVTVSS |  |
|  |  |  | 0.08 |  |  |  | 0.12 |  |  |  |  |  |  |  |  |  |  | FOLR1 VHH (VHH-Fc control) (Fc fusion, not shown: a dimerising Fc or GST) QVQLVESGGGLVQPGGSLRLSCAASGFTVSNSVMAWYRQTPGNEREFVAIINSIGITNYADSVKGRFTISRDNSKNTLYLQMNSLRAEDTAVYVCNRNFDRIYWGQGTLVTVSS | binding result [10]: no binding; binding result [11]: no binding; Kd [12]: 4.67 nM; koff [12]: 0.00312 s⁻¹; kon [12]: 668000 M⁻¹ s⁻¹; Kd [13]: 2.19 nM; koff [13]: 0.000828 s⁻¹; kon [13]: 379000 M⁻¹ s⁻¹ |
